Data taken from IntAct's records for PubMed 26824392.

Biological target: rab8a_human RAB8A (UniProt P61006)
Sequence (P61006 whole entry): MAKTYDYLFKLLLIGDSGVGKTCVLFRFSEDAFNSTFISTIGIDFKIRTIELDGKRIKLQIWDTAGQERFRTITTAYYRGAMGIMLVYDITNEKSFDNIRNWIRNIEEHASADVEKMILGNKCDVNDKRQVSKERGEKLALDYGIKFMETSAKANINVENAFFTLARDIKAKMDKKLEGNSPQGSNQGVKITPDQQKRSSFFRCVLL

effect of a mutation on the interaction: with no effect
Substance: Leucine-rich repeat serine/threonine-protein kinase 2 (Homo sapiens), Q5S007 R1441C
